The values below come from article PMC8888459, “During FeS cluster biogenesis, ferredoxin and frataxin use overlapping binding sites on yeast cysteine desulfurase Nfs1” (The Journal of Biological Chemistry, 2022).

This assay addresses T1, NIA–Isu1 complex with S. cerevisiae Isu1 (S. cerevisiae | E. coli (endogenous in …, UniProt P25374 37-497; Q6Q560 1-94; P0A6A8 1-78; Q03020 28-165).
T1 construct: Nfs1, mitochondrial cysteine desulfurase of S. cerevisiae; Isd11 of S. cerevisiae; acyl carrier protein of E. coli (ACPEc), endogenous in the expression host, 8.6 kD; Isu1, FeS cluster scaffold protein of S. cerevisiae (Isu1Sc); Formed in the reaction mixture from NIA and Isu1Sc; the number of Isu1 chains in the complex was not measured here; also called NIA–Isu1Sc; NIA and Isu1Sc mixture; …
The assay can be described thus: pull-down; competition: Yah1^GST (2.5 μM) with NIA (5 μM), with or without Isu1Sc or Isu1Ct (7.5 μM), then Yfh1 WT or DE/KK added (12.5 μM or increasing concentrations); glutathione resin; densitometry, amount without Yfh1 set as 100%; buffer PD. The following applies: both partners purified.

T1 sequence (P25374 37-497, chain 1 of 4): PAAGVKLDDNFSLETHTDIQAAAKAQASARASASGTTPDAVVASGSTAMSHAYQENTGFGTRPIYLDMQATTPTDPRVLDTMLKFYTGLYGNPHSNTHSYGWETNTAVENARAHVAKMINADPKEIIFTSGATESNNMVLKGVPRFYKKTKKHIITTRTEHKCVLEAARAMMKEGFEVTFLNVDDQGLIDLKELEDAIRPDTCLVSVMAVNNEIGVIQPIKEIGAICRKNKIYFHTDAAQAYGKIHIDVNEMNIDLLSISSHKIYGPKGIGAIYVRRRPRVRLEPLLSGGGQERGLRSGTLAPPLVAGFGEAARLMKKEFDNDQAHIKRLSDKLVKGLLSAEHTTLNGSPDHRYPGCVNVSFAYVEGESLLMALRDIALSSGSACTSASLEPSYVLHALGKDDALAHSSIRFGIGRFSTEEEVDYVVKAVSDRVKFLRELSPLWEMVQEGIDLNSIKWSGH
T1 sequence (Q6Q560 whole entry, chain 2 of 4): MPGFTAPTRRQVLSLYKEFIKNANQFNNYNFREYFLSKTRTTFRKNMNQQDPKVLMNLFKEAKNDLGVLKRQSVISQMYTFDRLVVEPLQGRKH
T1 sequence (P0A6A8 whole entry, chain 3 of 4): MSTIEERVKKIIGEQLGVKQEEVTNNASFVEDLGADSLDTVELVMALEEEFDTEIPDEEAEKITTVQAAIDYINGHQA
T1 sequence (Q03020 28-165, chain 4 of 4): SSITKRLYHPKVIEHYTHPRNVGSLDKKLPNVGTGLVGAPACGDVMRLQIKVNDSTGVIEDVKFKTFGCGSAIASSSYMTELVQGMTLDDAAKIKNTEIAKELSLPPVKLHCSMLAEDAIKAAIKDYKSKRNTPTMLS

B1: Yfh1 (frataxin) with a C-terminal polyhistidine tag (natural protein, S. cerevisiae, UniProt Q07540 52-174, looked up)
chain: VESSTDGQVVPQEVLNLPLEKYHEEADDYLDHLLDSLEELSEAHPDCIPDVELSHGVMTLEIPAFGTYVINKQPPNKQIWLASPLSGPNRFDLLNGEWVSLRNGTKLTDILTEEVEKAISKSQ
notes: Yfh1, mitochondrial frataxin of S. cerevisiae; also called Yfh1 (WT); source: E. coli expression systems
Consider B1, for which the “percent reduction of Nfs1, Isd11 and Isu1 pulled down with Yah1^GST at a fivefold excess of Yfh1 (12.5 μM)” value was found to be 85%.
